Assay results as given in patent CN113321730A.

Target: T1, hCLDN18.2 (human) (UniProt P56856)
T1 sequence (looked up): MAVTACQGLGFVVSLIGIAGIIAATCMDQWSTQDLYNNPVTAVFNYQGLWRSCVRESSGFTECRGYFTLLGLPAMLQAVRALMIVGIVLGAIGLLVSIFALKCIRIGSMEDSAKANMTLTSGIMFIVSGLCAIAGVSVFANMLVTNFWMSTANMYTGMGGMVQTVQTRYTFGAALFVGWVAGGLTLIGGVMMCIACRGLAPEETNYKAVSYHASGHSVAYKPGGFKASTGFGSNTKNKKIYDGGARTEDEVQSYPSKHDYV
Assay: FACS titration on 18.2-K562 cells (20 to 0.002 μg/mL), Anti-Human IgG FITC, MFI

抗体亲和力: 0.696 µg/mL
B1: 抗体E1(C18-23-3G5-1E1) (antibody, V domains shown)
VH: EVQLQQSGPELVKPGASVKISCQASGYTFTDYYMNWVKQSHVKSLEWIGHINPKNGGTNYNQNFKDKATLTVDKSSSTAYMELRSLTSEDSAVYYCARIYYGNSFVYWGQGTLVTVSA
VL: DIVMTQSPSFLTVTAGEKVTLNCKSSQSLLNSGNQKSYLTWYQQKPGQPPKLLIYWASTRESGVPDRFIGSGSGTDFTLTISSVQAEDLAVYYCQNNYFYPVTFGAGTKLELK
